Assay results reported in US20210015937A1 (CRESCENDO BIOLOGICS, published 2021).

Tests used:
[1] = target: T1, human LAG-3 expressed on cells (human, UniProt P18627 23-525); experiment: cell-based or functional assay
T1 sequence: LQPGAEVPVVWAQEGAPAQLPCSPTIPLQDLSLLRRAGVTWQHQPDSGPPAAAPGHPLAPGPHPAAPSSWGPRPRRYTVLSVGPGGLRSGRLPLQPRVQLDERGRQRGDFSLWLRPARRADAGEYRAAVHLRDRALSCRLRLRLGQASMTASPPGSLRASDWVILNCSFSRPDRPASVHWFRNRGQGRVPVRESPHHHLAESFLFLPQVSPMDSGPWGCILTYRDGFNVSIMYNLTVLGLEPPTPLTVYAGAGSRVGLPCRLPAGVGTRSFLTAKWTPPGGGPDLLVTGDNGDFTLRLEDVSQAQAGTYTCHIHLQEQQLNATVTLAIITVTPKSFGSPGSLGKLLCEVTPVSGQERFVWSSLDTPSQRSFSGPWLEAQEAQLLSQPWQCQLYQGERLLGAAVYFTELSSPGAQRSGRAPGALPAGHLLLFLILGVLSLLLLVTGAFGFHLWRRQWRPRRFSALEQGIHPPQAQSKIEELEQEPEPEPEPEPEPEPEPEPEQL

[2] = target: T2, recombinant human LAG-3-Fc (human, UniProt P18627 23-450); experiment: BLI (Octet); human LAG-3-Fc captured on protein G biosensors, 1:1 fit
T2 construct: also called human LAG-3 (R&D Systems cat no. 2319-L3); LAG3 antigen
T2 sequence: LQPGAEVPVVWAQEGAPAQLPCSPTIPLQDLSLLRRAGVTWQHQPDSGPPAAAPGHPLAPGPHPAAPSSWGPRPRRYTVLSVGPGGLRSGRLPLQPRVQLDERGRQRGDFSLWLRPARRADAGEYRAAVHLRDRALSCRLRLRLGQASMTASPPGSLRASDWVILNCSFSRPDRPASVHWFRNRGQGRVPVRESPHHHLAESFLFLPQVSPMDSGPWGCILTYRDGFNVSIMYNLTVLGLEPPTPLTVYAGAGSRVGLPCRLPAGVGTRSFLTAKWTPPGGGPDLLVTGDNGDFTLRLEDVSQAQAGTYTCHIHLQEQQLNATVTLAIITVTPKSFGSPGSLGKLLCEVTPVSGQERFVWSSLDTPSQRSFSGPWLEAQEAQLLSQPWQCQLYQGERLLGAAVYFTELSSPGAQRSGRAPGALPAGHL

mouse LAG-3 = target: T3, mouse LAG-3 (mouse, UniProt Q61790 24-442); experiment: ELISA, coated antigen, anti-HIS HRP detection
T3 construct: The construct is not described; also called mouse LAG-3 (Sino Biological cat no 53069-M02H); Mouse LAG3 (R&D Biotechne cat 3328-L3)
T3 sequence (looked up): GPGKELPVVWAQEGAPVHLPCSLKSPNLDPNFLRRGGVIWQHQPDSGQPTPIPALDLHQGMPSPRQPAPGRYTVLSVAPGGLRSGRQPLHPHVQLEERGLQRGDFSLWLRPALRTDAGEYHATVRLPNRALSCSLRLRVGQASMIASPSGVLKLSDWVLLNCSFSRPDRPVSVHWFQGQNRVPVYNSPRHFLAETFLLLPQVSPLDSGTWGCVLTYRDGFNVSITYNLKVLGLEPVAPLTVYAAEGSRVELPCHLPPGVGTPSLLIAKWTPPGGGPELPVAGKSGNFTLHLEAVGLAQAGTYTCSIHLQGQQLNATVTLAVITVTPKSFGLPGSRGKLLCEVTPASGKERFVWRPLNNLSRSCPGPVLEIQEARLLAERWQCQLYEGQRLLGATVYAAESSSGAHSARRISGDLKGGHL
Method: To screen specificity by ELISA, antigens were coated at 1-5 ug/ml and blocked with Marvel milk powder. VH were added at 10 μg/ml and incubated for 1 hour. After washing, HRP-conjugated anti-HIS antibody (Miltenyi cat no. 130-092-785) was added. TMB substrate and acidic solution were used to develop colorimetric signal.

[3] = target: T4, recombinant human PD-1 Fc chimera (human, UniProt Q15116 25-167); experiment: Octet bio-layer interferometry; VH (100 nM) first bound to immobilised LAG3-Fc, then PD-1-Fc added
T4 construct: Bought Fc chimera; also called human PD-1 (R&D systems cat no. 1086-PD); PD1 antigen
T4 sequence (Q15116 25-167 limits assumed, change not shown): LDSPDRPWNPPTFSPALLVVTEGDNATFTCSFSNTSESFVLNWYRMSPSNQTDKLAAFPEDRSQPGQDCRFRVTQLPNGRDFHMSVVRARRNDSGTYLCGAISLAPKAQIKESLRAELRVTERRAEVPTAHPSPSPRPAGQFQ
Method: Recombinant LAGS-Fc (10 μg/ml) was immobilised by standard amine coupling to amine reactive biosensors in 10 mM sodium acetate at pH6. The binding steps were performed in 0.1% BSA 0.02% Tween20 in PBS. 100 nM of Humabody® were used in the first binding step, followed by binding of human PD1-Fc at 5 μg/ml. The contact time for association and dissociation was 200 seconds.

[4] = target: T2, recombinant human LAG-3-Fc; experiment: competition ELISA; LAG-3-Fc pre-incubated with VH, binding to coated LSECtin
Source text: The plate was blocked with 3% Marvel skimmed milk powder in PBS. […] Wash steps were done 3 times with PBS 0.05% Tween. Colour was developed using TMB and 0.5M sulphuric acid solution.

B1: VH1.1-6GS-VH1.1-His6 (VHH)
chain: EVQLVESGGGVVRPGGSLRLSCSASGFTFDDYGMSWVRQAPGKGLEWVSGIHWNGGNSGYADSVKGRFTISRDNAKNSLYLQMNSLRAEDTALYYCARIPREDCSSASCYTDAIDFWGPGTMVTVSSGGGGSGGGGSGGGGSGGGGSGGGGSGGGGSEVQLVESGGGVVRPGGSLRLSCSASGFTFDDYGMSWVRQAPGKGLEWVSGIHWNGGNSGYADSVKGRFTISRDNAKNSLYLQMNSLRAEDTALYYCARIPREDCSSASCYTDAIDFWGPGTMVTVSSAAAHHHHHH
notes: Tandem fusion of two VH 1.1, bivalent for LAG-3; The entry includes the C-terminal AAA-His6; also called 1.1-6GS-1.1; bivalent 1.1-6GS-1.1
With B1 the “EC50 (M), NFAT-Luciferase Reporter Gene assay (LAG-3:MHCII)” value [1] was 4.1e-09 M, the Kd [2] was 0.417 nM and the koff [2] was 0.00047 s⁻¹. For the same binder, the kon [2] was 1.13e+06 M⁻¹ s⁻¹, the binding result (mouse LAG-3) was “no binding (tested: 10 µg/ml VH)” and the binding result [3] was “no binding”. For the same binder, the IC50 [4] was 55 nM.
